Experimental findings from article PMC9174452 are described below.

The target of assay [1] is C3d^A4H-C3d^W41A heterodimer (human).
Assay [2] deals with human C3d^17A (monomeric) (human). The experiment in a line: near-UV circular dichroism thermal melt; 87.5 µM C3d^17C or C3d^17A alone or with an equimolar concentration of the Sbi construct, 10 mM sodium phosphate pH 7.4, 250-320 nm, 5°C to 85°C; Tm from Boltzmann sigmoidal fits at 280 and 296 nm. (Circular dichroism is the unequal absorption of left and right circularly polarised light.)

In assay [1], “Sbi domain IV (wild-type Sbi-IV) (from UniProt Q2FVK5 198-266) (domain or fragment)” registered an increase in tryptophan fluorescence intensity of the C3d^A4H/C3d^W41A solution (100 µM, equimolar Sbi construct, excitation 295 nm), read as N-terminal helix swap of 27%.
Same read-out and setting: next, “Sbi domains III and IV (wild-type Sbi-III-IV) (from UniProt Q2FVK5 150-266) (domain or fragment)”: 17%.
Turning to “truncated Sbi-IV mutant Sbi-IV^V198-D208del (from UniProt Q2FVK5 198-266) (domain or fragment)”, the change in tryptophan fluorescence intensity of the C3d^A4H/C3d^W41A solution (100 µM, equimolar Sbi construct, excitation 295 nm), read as N-terminal helix swap in assay [1] amounted to 2.5%. The substance also gave an increase in melting temperature (Tm) of C3d^17A in assay [2] of 6.5 °C.
